Non-standard residues stand in square brackets, D forms with d. No end group written: not given here. biotin moiety B2 = not defined here; biotin moiety B3 = not defined here; Aib = CC(C)(N)C(=O)O
Legend:
[1] = in vivo; conditions: SD, rat
Method: The specimens were administered by subcutaneous injection and orally in amounts of 20 μg/kg to experimental rats (SD rat) with a body weight of approximately 200 g, then blood serum was isolated and enzyme-linked immunosorbent assays were carried out to measure change in blood drug concentration over time. Blood samples were collected from the jugular vein. A polypeptide having the amino acid sequence of SEQ. ID. No. 6 was used as the control.

[2] = system: blood glucose; test: Intraperitoneal glucose tolerance test after oral administration, Embodiments 5 and 6; assay type: in vivo, mice (C57BL/6); conditions: C57BL/6 mice; 500 μg/kg oral at -20 minutes; glucose 2 g/kg intraperitoneal
Method: To confirm glucose tolerance, Embodiments 5 and 6 were orally administered to mice, and blood glucose regulation efficacy was measured through an intraperitoneal glucose tolerance test.
To measure peritoneal glucose tolerance in an animal model, 100 μl of specimen (500 μg/kg, SEQ. ID. No. 2) was orally administered at −20 minutes to 9-week-old male mice (C57BL/6), followed by intraperitoneal injection of 200 μl glucose (2 g/kg) and observation of blood glucose changes in blood collected from the tail vein at −20, 0, 20, 40, 60, 90 and 120 minutes.
FIG. 6 is a graph illustrating blood glucose change after administering glucose to each specimen.

Row | Compound | bioavailability [1] [%] | glucose regulating ability (blood glucose change, FIG. 6) [2]
1 | CC[C@H](C)[C@H](NC(=O)[C@H](CCC(=O)O)NC(=O)[C@H](CO)NC(=O)[C@@H](NC(=O)[C@@H](N)CO)C(C)C)C(=O)N[C@@H](CCC(N)=O)C(=O)N[C@@H](CC(C)C)C(=O)N[C@@H](CCSC)C(=O)N[C@@H](Cc1c[nH]cn1)C(=O)N[C@@H](CC(N)=O)C(=O)N[C@@H](CC(C)C)C(=O)NCC(=O)N[C@@H](CCCCN)C(=O)N[C@@H](Cc1c[nH]cn1)C(=O)N[C@@H](CC(C)C)C(=O)N[C@@H](CC(N)=O)C(=O)N[C@@H](CO)C(=O)N[C@@H](CCSC)C(=O)N[C@@H](CCC(=O)O)C(=O)N[C@@H](CCCNC(=N)N)C(=O)N[C@H](C(=O)N[C@@H](CCC(=O)O)C(=O)N[C@@H](Cc1c[nH]c2ccccc12)C(=O)N[C@@H](CC(C)C)C(=O)N[C@@H](CCCNC(=N)N)C(=O)N[C@@H](CCCCN)C(=O)N[C@@H](CCCCN)C(=O)N[C@@H](CC(C)C)C(=O)N[C@@H](CCC(N)=O)C(=O)N[C@@H](CC(=O)O)C(=O)N[C@H](C(=O)N[C@@H](Cc1c[nH]cn1)C(=O)N[C@@H](CC(N)=O)C(=O)N[C@@H](Cc1ccccc1)C(=O)N[C@@H](CSC1CC(=O)N(CCC(=O)NC(CCCCNC(=O)CCCCC2SCC3NC(=O)NC32)C(=O)NC(CCCCNC(=O)CCCCC2SCC3NC(=O)NC32)C(=O)NC(CCCCNC(=O)CCCCC2SCC3NC(=O)NC32)C(N)=O)C1=O)C(=O)O)C(C)C)C(C)C (stereo partly shown) [Embodiment 9] | 4.9 | –
2 | Embodiment 5: polypeptide of SEQ. ID. No. 8 bonded to biotin moiety B2 at C30 (H[Aib]QGTFTSDYSKYLDEQAAKEFVQWLMNTC(biotin moiety B2); reading uncertain) | – | glucose regulating ability
3 | Embodiment 6: polypeptide of SEQ. ID. No. 8 bonded to biotin moiety B3 at C30 (H[Aib]QGTFTSDYSKYLDEQAAKEFVQWLMNTC(biotin moiety B3); reading uncertain) | – | glucose regulating ability
4 | CC[C@H](C)[C@H](NC(=O)[C@H](CCC(=O)O)NC(=O)[C@H](CO)NC(=O)[C@@H](NC(=O)[C@@H](N)CO)C(C)C)C(=O)N[C@@H](CCC(N)=O)C(=O)N[C@@H](CC(C)C)C(=O)N[C@@H](CCSC)C(=O)N[C@@H](Cc1c[nH]cn1)C(=O)N[C@@H](CC(N)=O)C(=O)N[C@@H](CC(C)C)C(=O)NCC(=O)N[C@@H](CCCCN)C(=O)N[C@@H](Cc1c[nH]cn1)C(=O)N[C@@H](CC(C)C)C(=O)N[C@@H](CC(N)=O)C(=O)N[C@@H](CO)C(=O)N[C@@H](CCSC)C(=O)N[C@@H](CCC(=O)O)C(=O)N[C@@H](CCCNC(=N)N)C(=O)N[C@H](C(=O)N[C@@H](CCC(=O)O)C(=O)N[C@@H](Cc1c[nH]c2ccccc12)C(=O)N[C@@H](CC(C)C)C(=O)N[C@@H](CCCNC(=N)N)C(=O)N[C@@H](CCCCN)C(=O)N[C@@H](CCCCN)C(=O)N[C@@H](CC(C)C)C(=O)N[C@@H](CCC(N)=O)C(=O)N[C@@H](CC(=O)O)C(=O)N[C@H](C(=O)N[C@@H](Cc1c[nH]cn1)C(=O)N[C@@H](CC(N)=O)C(=O)N[C@@H](Cc1ccccc1)C(=O)N[C@@H](CSC1CC(=O)N(CCC(=O)NC(CCCCNC(=O)CCCCC2SCC3NC(=O)NC32)C(=O)NC(CCCCNC(=O)CCCCC2SCC3NC(=O)NC32)C(N)=O)C1=O)C(=O)O)C(C)C)C(C)C (stereo partly shown) [Embodiment 8] | 7.8 | –
